Reference: patent US20090041783A1 (MOCHIDA PHARMACEUTICAL, published 2009)
Each block holds one binder with its values, some of them ahead of it.

Tests used:
[1] = target: T1, human GPVI extracellular region-human Fc fusion protein (hGPVI-hFc) (human); assay: blocking ELISA: binding of hGPVI-hFc to immobilised collagen in the presence of the antibody (panel Comparsion of mouse anti-GPVI monoclonal antibodies)
T1 construct: Expressed in COS-1, purified on Protein A; also called GPVI-HHH-hFc; hGPVIHHH-hFc
Target sequence in this assay (chain, as listed by the source limits assumed): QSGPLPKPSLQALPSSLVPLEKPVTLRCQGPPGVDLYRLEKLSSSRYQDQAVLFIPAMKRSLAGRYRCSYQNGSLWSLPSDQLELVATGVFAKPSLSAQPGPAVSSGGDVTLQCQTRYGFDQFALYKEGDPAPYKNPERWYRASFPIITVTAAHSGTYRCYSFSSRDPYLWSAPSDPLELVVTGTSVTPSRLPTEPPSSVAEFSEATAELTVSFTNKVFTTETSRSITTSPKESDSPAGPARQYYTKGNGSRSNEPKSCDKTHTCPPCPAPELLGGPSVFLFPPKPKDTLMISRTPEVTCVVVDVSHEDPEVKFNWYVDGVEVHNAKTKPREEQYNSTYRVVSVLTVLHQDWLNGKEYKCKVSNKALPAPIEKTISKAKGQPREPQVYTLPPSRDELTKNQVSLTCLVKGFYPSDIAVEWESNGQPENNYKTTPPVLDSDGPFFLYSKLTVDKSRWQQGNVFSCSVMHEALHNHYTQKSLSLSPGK

[2] = target: T1, human GPVI extracellular region-human …; assay: competition ELISA on immobilised hGPVI-hFc: unlabelled antibody against the peroxidase-labelled mouse antibody of the panel titled F1232-10-2 competition assay (the text, paragraph 248, names F1232-10-1); x axis relative amount to labeled Ab (fold)
Method: Next, by using the peroxidase-labeled antibody, the competitive test for a variety of purified antibody was performed. That is, 25 μL of the above labeled antibody and 25 μL of each purified antibody were added to well of hGP-hFc-immobilized plate. After incubation at 37° C. for one hour, the well was washed five times with the saline containing 0.05% Tween20, and the reaction mixture was developed with TMB solution (BioFix). After incubation at room temperature for 10 minutes, the reaction was terminated with 0.5 M sulfuric acid solution and an absorbance at 450 nm was measured with the plate spectrophotometer (Multi-Scan JX, Dainippon Pharmaceutical).
To compare an antigen binding property of mouse/human chimeric antibody with that of the corresponding mouse monoclonal antibody, in the same method as that of EXAMPLE 14, peroxidase-labeled F1232-37-2, F1232-18-3, F1232-43-3 and F1232-10-1 were prepared. […] Further, an inhibiting activity of each antibody for binding of GPVI to collagen was measured according to the method described in EXAMPLE 2 or EXAMPLE 14. […]

hGPVI-K59E-hFc = target: T2, hGPVI-K59E-hFc (human); assay: competition ELISA on hGPVI-hFc plate; soluble hGPVI-K59E-hFc as competitor
T2 construct: Fusion of human GPVI extracellular region with lysine at 59 of human GPVI substituted for glutamic acid, and human Fc
Method: (§1) To the plate, wherein hGPVI-hFc has been immobilized at 4 μg/mL, a mixture of peroxidase-labeled F1232-37-2 or cF1232-37-2 by the method described in EXAMPLE 14, and hGPVI-hFc, mGPVI-hFc, hGPVI-mL3-hFc, wherein these were prepared in EXAMPLE 7, or hGPVI-K59E-hFc (a fusion protein consisting of one amino acid mutated human GPVI extracellular region, wherein lysine at 59 of human GPVI is substituted for glutamic acid, and human Fc), which has been prepared by the same method as that of EXAMPLE 1 and diluted with 0.1% BSA/PBS was added, and the plate was incubated at 37° C. for one hour. After incubation, the mixture was developed using TMB solution, and absorbance at 450 nm was measured.

[3] = target: T1, human GPVI extracellular region-human …; assay: competition ELISA on immobilised hGPVI-hFc: unlabelled antibody against labelled cF1232-37-2/COS
Method: as §1
To confirm the reactivity of cF1232-37-2/CHO, using binding ability to hGPVI-hFc as an index, the competitive test with cF1232-37-2 prepared by transient gene expression system with COS cells was performed. The measurement method was in accordance with the method described in 17-3 of EXAMPLE 17. Using hGPVI-hFc as an immobilized protein, a competitive activity to labeled cF1232-37-2/COS was confirmed when unlabeled cF1232-37-2/CHO or cF1232-37-2/COS was added at a variety of concentration. It was confirmed that the reactivity of cF1232-37-2/CHO is equivalent to that of cF1232-37-2/COS.

hGPVI-mL3-hFc = target: T3, hGPVI-mL3-hFc (human (loop 3 from mouse)); assay: competition ELISA on hGPVI-hFc plate; soluble hGPVI-mL3-hFc as competitor
T3 construct: also called hGPVI-hFc-mL3
Method: as §1

[4] = target: T1, human GPVI extracellular region-human …; assay: SPR (BIACORE 3000), hGPVI-hFc on CM5 chip, 0-800 nM analyte, 1:1 binding fit
Method: (§2) Dissociation constant for F1232-37-2 (whole antibody) prepared in EXAMPLE 2, and F(ab′)2 and Fab prepared in 22-1 and 21-2 was measured with Protein Interaction Analyzer BIACORE 3000 (BIACORE). That is, to sensorchip CM5 (BIACORE) hGPVI-hFc prepared in EXAMPLE 1 was bound according to the manual. Then a series of dilution from 0 to 800 nM of each antibody was prepared with HBS-EP buffer (BIACORE) and analyzed with BIACORE 3000. After completion of antibody binding, chip was regenerated with glycine buffer (pH 1.5) (BIACORE). Regarding the results of whole antibody and F(ab′)₂, evaluation software Bivalent analyte (BIACORE) was used for analysis; 1:1 Binding for Fab analysis. Then the dissociation constant was calculated. As a result, dissociation constant of F1232-37-2 F(ab′)2 and Fab was about 0.7 and 0.6, respectively, when that of whole antibody defined as one.

[5] = target: T1, human GPVI extracellular region-human …; assay: ELISA on immobilised hGPVI-hFc (GPVI antigen binding assay of Example 31)
[6] = target: T1, human GPVI extracellular region-human …; assay: ELISA on immobilised hGPVI-hFc, anti-human mu-chain detection
[7] = target: T4, human platelet membrane glycoprotein VI (GPVI) on human platelets (human, UniProt Q9HCN6 21-339); assay: flow cytometry on human platelets, 3-4 µg/mL antibody, anti-human IgM-FITC
T4 construct: whole, on cells
T4 sequence (looked up): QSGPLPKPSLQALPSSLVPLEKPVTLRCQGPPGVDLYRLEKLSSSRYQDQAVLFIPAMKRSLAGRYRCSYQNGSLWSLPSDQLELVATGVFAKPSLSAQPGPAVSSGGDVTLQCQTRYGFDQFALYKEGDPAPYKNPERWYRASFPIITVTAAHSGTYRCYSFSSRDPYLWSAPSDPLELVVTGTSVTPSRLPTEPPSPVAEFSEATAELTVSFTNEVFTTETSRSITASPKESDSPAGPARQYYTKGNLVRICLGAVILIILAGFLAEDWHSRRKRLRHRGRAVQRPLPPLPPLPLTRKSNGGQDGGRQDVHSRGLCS
Method: Cynomolgus monkey and human PRPs prepared by the method described in 18-1 of EXAMPLE 18 were diluted with FACS buffer to make the platelet concentration 3.75×10⁸ cells/mL. To the diluted PRP, cF1232-37-2 (IgM) or cF1232-43-3 (IgM) prepared in the above 29-2 was added at the final concentration of 3-4 μg/mL, and stood at 25° C. for 30 minutes. After incubation, the platelet was washed with FACS buffer. Subsequently, after adding anti-human IgM-FITC (BD Biosciences Pharmingen) and standing at room temperature for 30 minutes, the platelet was washed with FACS buffer and the fluorescence intensity of the platelet was measured with flow cytometer CYTOMICS FC500 (BECKMAN COULTER). As a result, it was confirmed that both antibodies of cF1232-37-2 (IgM) and cF1232-43-3 (IgM) bind to the monkey and the human platelet.

[8] = target: T1, human GPVI extracellular region-human …; assay: SPR (BIACORE 3000), hGPVI-hFc on CM5 chip, 0-800 nM analyte, bivalent analyte fit
Method: as §2

[9] = target: T5, cynomolgus monkey D1D2-human D3 chimeric GPVI-human Fc fusion protein (GPVI-FFH-hFc) (cynomolgus monkey (D1, D2) and human …); assay: SPR (BIACORE3000), GPVI-Fc on CM5 chip, antibody 1.25-40 nM as analyte, bivalent analyte fit
T5 construct: also called Monkey GPVI
Method: (§3) Dissociation constant for the anti-GPVI monoclonal antibody prepared in EXAMPLE 2 was measured using protein interaction analyzer BIACORE3000 (BIACORE). That is, to sensor chip, CM5 chip (BIACORE), GPVI substitution mutant (hGPVIHHH-hFc and FFH-hFc) that is prepared in EXAMPLE 1 was linked according to the manual. Then each antibody was diluted with HBS-EP buffer solution (BIACORE) to prepare a series of diluted solution from 1.25 to 40 nM, and analyzed with BIACORE3000. Every each antibody bound chip, the chip was regenerated with glycine buffer solution at pH1.5. The obtained result was analyzed with Bivalent analyte, the evaluation software (BIACORE) to calculate dissociation constant. It was shown that each anti-GPVI monoclonal antibody has a sufficient affinity to GPVI-HHH-hFc.

[10] = target: T1, human GPVI extracellular region-human …; assay: as above
Method: as §3

[11] = target: T1, human GPVI extracellular region-human …; assay: ELISA on immobilised hGPVI-hFc, peroxidase-labelled anti-mouse immunoglobulin antibody
Method: Binding activity to the antigen was detected by ELISA. To each well of immunoplate immobilized with hGPVI-hFc (prepared by the method described in EXAMPLE 2 and the like), F1232-37-2 antibody and F1232-37-2 PEGylated antibody, wherein both antibodies had been adjusted to the same concentration, was added and the plate was incubated at 37° C. for one hour. The well was washed with saline containing 0.05% Tween20. Then 50 μL of peroxidase-labeled anti-mouse immunoglobulin antibody (DAKO, P260), which had been diluted by 1000-fold with 10% rabbit serum-containing D-PBS, was added to each well. After incubation at 37° C. for one hour, coloring reaction by the TMB substrate was done to measure an absorbance at 450 nm with plate spectro-photometer (Molecular Devices, Wako). As a result, it was confirmed that both F1232-37-2 antibody and PEGylated F1232-37-2 antibody have almost equivalent binding activity.

T2 sequence (chain, as listed by the source K59E K59E limits assumed): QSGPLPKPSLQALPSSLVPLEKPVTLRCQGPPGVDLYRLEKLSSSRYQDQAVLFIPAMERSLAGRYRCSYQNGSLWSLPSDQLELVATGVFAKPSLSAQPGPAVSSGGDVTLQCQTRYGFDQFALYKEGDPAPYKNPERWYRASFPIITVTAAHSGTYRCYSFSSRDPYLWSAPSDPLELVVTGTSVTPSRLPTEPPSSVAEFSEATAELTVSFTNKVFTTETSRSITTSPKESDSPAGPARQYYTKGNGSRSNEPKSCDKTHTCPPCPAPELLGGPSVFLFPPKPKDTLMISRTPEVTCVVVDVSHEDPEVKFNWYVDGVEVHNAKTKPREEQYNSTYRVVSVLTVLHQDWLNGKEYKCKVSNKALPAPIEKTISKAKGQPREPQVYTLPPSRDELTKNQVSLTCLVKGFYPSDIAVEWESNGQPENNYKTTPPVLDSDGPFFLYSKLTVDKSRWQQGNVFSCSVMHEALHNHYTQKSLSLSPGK
T3 sequence (chain, as listed by the source limits assumed): as the sequence (chain, as listed by the source K59E K59E limits assumed) above, with G33D, E59K counted along it
T5 sequence (chain, as listed by the source mutant limits assumed): as the sequence (chain, as listed by the source K59E K59E limits assumed) above, with S2R, E59K, S61H, L78P, R166G, V181M, P442S counted along it

- binding result (hGPVI-K59E-hFc): binds
- IC50 (read off the curve) [3]: ~1 mg/L
- binding result (hGPVI-mL3-hFc): binds
B3: cF1232-37-2 (mouse/human chimeric antibody of F1232-37-2) (antibody, human IgG4, V domains shown)
VH: VQLQQSGPELVRPGESVKISCKGSGYTFTDYAIHWVKLSHAKSLEWIGVISIYYDDTNYNQKFKGKATMTVDKSSSTAYLELARLTSEDSAIYYCARRRDSSGPYAMDYWGQGTSVTVSS
VL: DIVLTQSPASLAVSLGQRATISCRASESVDSYGNSFMHWYQQKPGQPPKLLIYRASNLESGIPARFSGSGSRTDFTLTINPVEADDVATYYCQQSNEDPYTFGGGTKLEIKR
notes: Mouse V regions of F1232-37-2 with human IgG4 (Cgamma4) and human kappa constant regions; plasmids pTK-2510 and pTK-2511; made in COS-1 (/COS) and in CHO DXB11 (/CHO); also called cF1232-37-2/COS; cF1232-37-2/CHO

- binding result [6]: binds
- binding result [7]: binds
B5: mouse/human chimeric IgM-type F1232-37-2, cF1232-37-2 (IgM) (antibody)
VH: B3 VH
VL: DIVLTQSPASLAVSLGQRATISCRASESVDSYGNSFMHWYQQKPGQPPKLLIYRASNLESGIPARFSGSGSRTDFTLTINPVEADDVATYYCQQSNEDPYTFGGGTKLEIKRADAA
chain: not shown
notes: Heavy chain: V region of cF1232-37-2 with human mu-chain constant region (pTK-2820); the CDRs of both clones are printed identical; Human kappa constant region

- binding result (hGPVI-K59E-hFc): binds
- Kd [9]: 1 nM
- Kd [10]: 0.403 nM
- binding result (hGPVI-mL3-hFc): binds
- EC50 (read off the curve) [11]: ~0.02 mg/L
B7: F1232-37-2 (antibody, V domains shown)
VH: B3 VH
VL: B3 VL
notes: Mouse hybridoma monoclonal antibody; also called F1232-37-2 antibody; F1232-37-2 whole antibody

The remaining lines, values behind:

B1: F1232-10-1 (antibody, V domains shown)
VH: VTLKESGPGILQPSQTLSLTCSFSGFSLSTYGIGVGWIRQPSGKGLEWLAHIWWNDDKYYNTALKSRLTISKDTSNNQVFLKIASVDTADTATYYCARVYYYGSSFDYWGQGTTLTVSS
VL: DIQMTQSPASLSASVGETVTITCRASENIFSILAWYQQKQGKSPQLLVYAATNLADGVPSRFSGSGSGTQFSLKINSLQPEDFGSYYCQHFYGTPWTFGGGTKLEIKR
notes: Mouse hybridoma monoclonal antibody
- binding result [1]: binds

B2: cF1232-10-1 (antibody, human IgG4, V domains shown)
VH: B1 VH
VL: B1 VL
notes: Mouse/human chimeric antibody of F1232-10-1; human IgG4 and kappa constant regions; COS-1
- binding result [2]: binds

B4: F1232-37-2 Fab (Fab, V domains shown)
VH: B3 VH
VL: B3 VL
notes: Fab made from mouse F1232-37-2 with papain; also called F1232-37-2 Fab antibody
- dissociation constant relative to that of the whole antibody (defined as one) [4]: ~0.6 fold of whole F1232-37-2
- EC50 (read off the curve) [5]: ~0.3 mg/L

B6: F1232-37-2 F(ab')2 (other)
VH: B3 VH
VL: B5 VL
notes: F(ab')2 fragment made from mouse F1232-37-2 with Lysyl Endopeptidase; also called mouse monoclonal antibody F1232-37-2 F(ab')2
- dissociation constant relative to that of the whole antibody (defined as one) [8]: ~0.7 fold of whole F1232-37-2
